The subject of the assay is Ex1Q48-CyPet/-YPet. The experiment in a line: FRASE assay: effect of added preformed fibrils/seeds on Ex1Q48-CyPet/-YPet polymerization. It is filed as biochemical, human. The following applies: sonicated Ex1Q48 seeds (~1,250 kDa); sensor 1:1 mixture, 1.2 μM. Here is the method:
(B) Effects of small, preformed Ex1Q48 seeds (1250 kDa) on Ex1Q48-CyPet and -YPet (1:1 mixture, total conc. 1.2 μM) co-aggregation. Data are mean±SEM (n=5).
(D) Effects of non-polyQ fibrils on Ex1Q48-CyPet and -YPet (1:1 mixture, total conc. 1.2 μM) co-aggregation. Data are mean±SD of triplicates.
Spontaneous Ex1Q48 aggregation was initiated by addition of 14 U PreScission protease (GE Healthcare) per nmol purified GST-Ex1Q48 fusion protein (2 μM). The aggregation reaction was performed in 50 mM Tris-HCl pH 7.4, 150 mM NaCl, 1 mM EDTA and 1 mM DTT at 25° C. and constant agitation (450 rpm) for 24 h. […]
Purified GST-Ex1Q48-CyPet and GST-Ex1Q48-YPet were diluted in aggregation buffer at an equimolar ratio to a final concentration of 1.2 μM (0.6 μM each) with 14 U PSP per nmol sensor proteins if not stated otherwise. […] For quantification of seeding-competent HTT species in tissue samples, the sensor-protein mixture was supplemented with up to 10% (v/v) tissue homogenate. Fluorescence signals were measured every 20 min following a 5 s pulse of vertical shaking with a Tecan M200 fluorescence plate reader at 25° C. for up to 48 h. CyPet donor fluorescence was measured at excitation (Ex): 435 nm/emission (Em): 475 nm; YPet acceptor fluorescence at Ex: 500 nm/Em: 530 nm; the FRET channel (DA) was recorded at Ex: 435 nm/Em: 530 nm. […]

B1: Ex1Q48 seeds: preformed recombinant mutant huntingtin exon 1 (48 glutamines) aggregates, sonicated, ~1,250 kDa (protein)
chain: MATLEKLMKAFESLKSFQQQQQQQQQQQQQQQQQQQQQQQQQQQQQQQQQQQQQQQQQQQQQQQQPPPPPPPPPPPQLPQPPPQAQPLLPQLQPPPPPPPPPPGPAAAEEPLHRP
Regarding B1, the “threshold for detecting seeds in FRASE assay” value is approximately 60 fM.

Source of the values: patent publication US12287344B2, “Fret-based method to measure seeding activity of misfolded protein species in biological samples” (MAX-DELBRÜCK-CENTRUM FÜR MOLEKULARE MEDIZIN IN DER …, priority 2018, dated 2025).
